Measurements taken from patent publication US20230212319A1, “NOVEL ANTIGEN BINDING DOMAINS AND SYNTHETIC ANTIGEN RECEPTORS INCORPORATING THE SAME” (University of Southern California, priority 2020, published 2023).

Experiments:
Huh-7 cells = test: JNG NFAT-GFP induction on co-culture with Huh-7
KMH2 (PSMA-low) cells = test: JNG NFAT-GFP induction on co-culture with KMH2
RAJI-CD19-KO cells = test: JNG assay, co-culture with RAJI-CD19-KO cells; type: cell-based; settings: co-culture with Raji-CD19-KO
How it was run: (§1)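 Jurkat-NFAT-GFP (JNG) cells stably expressing SAR constructs via lentiviral transduction and puromycin/blasticidin selection were cocultured with target cells at E:T ~1:2 for ~4–18 h. NFAT-driven GFP was measured by FACS versus parental JNG cells; scores +/- to 5+ denote ~5–50% GFP-positive cells.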

Nalm6 cells = test: JNG assay, co-culture with Nalm6 cells; type: cell-based; settings: co-culture with Nalm6
How it was run: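 NFAT-driven GFP in stably SAR-transduced Jurkat cells after coculture (E:T ~1:2; ~4–18 h), measured by flow cytometry and expressed as % GFP+ cells over parental Jurkat-NFAT-GFP cells.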

RAJI cells = test: JNG assay, co-culture with RAJI cells; type: cell-based; settings: JNG cells expressing construct, co-culture with Raji
How it was run: as §1

SKOV-3 cells = test: JNG assay, co-culture with SKOV-3 cells; type: cell-based; settings: co-culture with SKOV-3
Description: Cellular supernatant is collected and assayed for the induction of cytokines (e.g., IL2).
JNG (Jurkat cells expressing EGFP under an NFAT promoter) were infected with lentiviral vectors encoding different single chain and multi-chain SARs by spinfection in the presence of 8 µg/ml of Polybrene® (Sigma, Catalog no. H9268). The Jurkat-NFAT-GFP cells are engineered in such a way that the IL-2 promoter, which carries NFAT binding sites, is cloned upstream of the GFP gene. These cells have been used to study signaling via TCR and CAR. The different SARs were stably expressed in Jurkat NFAT-GFP cells by lentiviral mediated gene transfer, followed by selection with puromycin or blasticidin. No drug selection was used in case the construct lacked an antibiotic resistance gene. The SAR-expressing Jurkat-NFAT-GFP cells were cocultured with the target cells at E:T ratio of approximately 1:2 for approximately 4 hours to 18 hours. When the interaction between SIRs and their target antigen results in activation of the NFAT pathway, GFP expression is induced. […] GFP expression was monitored by FACS analysis. The Jurkat-NFAT-GFP (parental) cells were used as control. The structure of different constructs can be determined based on their names. […] The sequence of the other constructs in the table can be similarly determined from their names and by referring to the different Tables of this disclosure that provide the names and SEQ ID NO of the different modules. Alternatively, the composition and modular architecture of the different SAR constructs can be determined from their sequences by bioinformatics tools, including using nucleic acid and amino acids homology searches. A SAR is considered positive in the assay in case the SAR expressing Jurkat-NFAT-GFP cells show greater % GFP positive cells when cultured with the target cell line as compared to parental Jurkat-NFAT-GFP cells. […] In general, the number +/-, +, 2+, 3+, 4+, 5+ refer to approximately 5%, 10%, 20%, 30%, 40% and 50% GFP positive cells. The % of GFP induction in the above assay is dependent not only the relative strength of the SAR but also, among other factors, on the relative level of expression of the SAR in the JNG cells and the relative level of expression of the target antigen in the target cell line. To control for the difference in gene transduction efficiency of the different SAR constructs, the experiment was conducted with JNG cells transduced with SAR constructs co-expressing a drug resistance gene (e.g., puromycin or PAC) followed by drug selection to generate a stable population of SAR-expressing cells. It is to be noted that the drug resistance gene (e.g., PAC) in the SAR constructs is optional and in vivo studies were conducted with SAR constructs lacking the PAC gene.

L363 cells = test: JNG assay, co-culture with L363 cells; type: cell-based; settings: co-culture with L363
How it was run: as §1

B1: 21882 (protein)
chain: MALPVTALLLPLALLLHAARPDIQMTQSPSSLSASVGDRVTITCKASQDVGTAVDWYQQKPGKAPKLLISWASTRHTGVPSRFSGSGSGTDFTLTISSLQPEDFATYFCQQYNSYPLTFGQGTKVEIKRTVLEDLKNVFPPEVAVFEPSEAEISHTQKATLVCLATGFYPDHVELSWWVNGKEVHSGVCTDPQPLKEQPALNDSRYCLSSRLRVSATFWQNPRNHFRCQVQFYGLSENDEWTQDRAKPVTQIVSAEAWGRADCGFTSESYQQGVLSATILYEILLGKATLYAVLVSALVLMAMVKRKDSRGRAKRSGSGATNFSLLKQAGDVEENPGPTSMDWIWRILFLVGAATGAHSFEVQLVESGGGLVQPGGSLRLSCAASGFTFTDYTIHWVRQAPGKGLEWVANINPNNGGTTYNQKFEDRFTISRDNSKNTLYLQMNSLRAEDTAVYYCARGWNFDYWGQGTLVTVSSTRIQNPDPAVYQLRDSKSSDKSVCLFTDFDSQTNVSQSKDSDVYITDKCVLDMRSMDFKSNSAVAWSNKSDFACANAFNNSIIPEDTFFPSPESSCDVKLVEKSFETDTNLNFQNLSVIGFRILLLKVAGFNLLMTLRLWSSRAKRSGSGVKQTLNFDLLKLAGDVESNPGPSRGHMTEYKPTVRLATRDDVPRAVRTLAAAFADYPATRHTVDPDRHIERVTELQELFLTRVGLDIGKVWVADDGAAVAVWTTPESVEAGAVFAEIGPRMAELSGSRLAAQQQMEGLLAPHRPKEPAWFLATVGVSPDHQGKGLGSAVVLPGVEAAERAGVPAFLETSAPRNLPFYERLGFTVTADVEVPEGPRTWCMTRKPGA
How did the “NFAT-GFP ASSAY: Huh-7” value (Huh-7 cells) turn out when B1 was run?
The value was “negligible GFP induction”.

And the “NFAT-GFP ASSAY: KMH2” value (KMH2 (PSMA-low) cells)?
Its value is “negligible GFP induction”.

B2: 22166 (protein)
chain: MALPVTALLLPLALLLHAARPEVQLQESGGGLVQPGGSLRLSCAASGRTFSSLFMGWFRQAPGKERELVAAISRYSLYTYYADSVKGRFTISADNAKNAVYLQMNSLKPEDTAVYYCASKLEYTSNDYDSWGQGTQVTVSSGTGGGGSGGGGSGGGGSEFDIQMTQSPSSLSASVGDRVTITCKASDHINNWLAWYQQKPGQAPKLLIYGATTLETGVPSRFSGSGSGTDYTLTISSLQPEDFATYYCQQSWNTPWTFGQGTKLEIKRLEIQNPDPAVYQLRDSKSSDKSVCLFTDFDSQTNVSQSKDSDVYITDKCVLDMRSMDFKSNSAVAWSNKSDFACANAFNNSIIPEDTFFPSSDVPCDVKLVEKSFETDTNLNFQNLSVIGFRILLLKVAGFNLLMTLRLWSSRAKRSGSGVKQTLNFDLLKLAGDVESNPGPTSATMDWIWRILFLVGAATGAHSGPQVQLQESGGGLAQAGGSLRLSCAASGRTFSMGWFRQAPGKEREFVAAITYSGGSPYYASSVRGRFTISRDNAKNTVYLQMNSLKPEDTAVYYCAANPTYGSDWNAENWGQGTQVTVSSGSGGGGSGGGGSGGGGSFEQVQLQQPGAELVKPGASVKMSCKASGYAFSSYWINWMKQKPGQGLEWIGQIYPGDGDTNYNGKFKGRATLTADTSSSTAYMQLSSLTSEDSAVYFCARSITTVVGCAMDYWGQGTSVTVSSTREDLKNVFPPEVAVFEPSKAEIAHTQKATLVCLATGFYPDHVELSWWVNGKEVHSGVCTDPQPLKEQPALNDSRYCLSSRLRVSATFWQNPRNHFRCQVQFYGLSENDEWTQDRAKPVTQIVSAEAWGRADCGITSASYHQGVLSATILYEILLGKATLYAVLVSALVLMAMVKRKDSRGRAKRSGSGATNFSLLKQAGDVEENPGPSRGHMTEYKPTVRLATRDDVPRAVRTLAAAFADYPATRHTVDPDRHIERVTELQELFLTRVGLDIGKVWVADDGAAVAVWTTPESVEAGAVFAEIGPRMAELSGSRLAAQQQMEGLLAPHRPKEPAWFLATVGVSPDHQGKGLGSAVVLPGVEAAERAGVPAFLETSAPRNLPFYERLGFTVTADVEVPEGPRTWCMTRKPGA
For B2, which “NFAT-GFP ASSAY: Raji-CD19-KO” value (RAJI-CD19-KO cells) is on record?
The value was 2+ (refer to approximately 5%, 10%, 20%, 30%, 40% and 50% GFP positive cells).

What about the “NFAT-GFP ASSAY: Nalm6” value (Nalm6 cells) of the same molecule?
The value was 3+ (refer to approximately 5%, 10%, 20%, 30%, 40% and 50% GFP positive cells).

And the “NFAT-GFP ASSAY: Raji” value (RAJI cells)?
The value was 2+ (refer to approximately 5%, 10%, 20%, 30%, 40% and 50% GFP positive cells).

And the “NFAT-GFP ASSAY: SKOV-3” value (SKOV-3 cells)?
The value was 2+ (refer to approximately 5%, 10%, 20%, 30%, 40% and 50% GFP positive cells).

B3: 22177 (protein)
chain: MALPVTALLLPLALLLHAARPLFNQEVQIPLTESYCGPCPKNWICYKNNCYQFFDESKNWYESQASCMSQNASLLKVYSKEDQDLLKLVKSYHWMGLVHIPTNGSWQWEDGSILSPNLLTIIEMQKGDCALYASSFKGYIENCSTPNTYICMQRTVGGGGSGGGGSGGGGSDLFNQEVQIPLTESYCGPCPKNWICYKNNCYQFFDESKNWYESQASCMSQNASLLKVYSKEDQDLLKLVKSYHWMGLVHIPTNGSWQWEDGSILSPNLLTIIEMQKGDCALYASSFKGYIENCSTPNTYICMQRTVGTGGGGSGGGGSGGGGSEFDIQMTQSPSSLSASVGDRVTITCKASDHINNWLAWYQQKPGQAPKLLIYGATTLETGVPSRFSGSGSGTDYTLTISSLQPEDFATYYCQQSWNTPWTFGQGTKLEIKRLEDLKNVFPPEVAVFEPSKAEIAHTQKATLVCLATGFYPDHVELSWWVNGKEVHSGVCTDPQPLKEQPALNDSRYCLSSRLRVSATFWQNPRNHFRCQVQFYGLSENDEWTQDRAKPVTQIVSAEAWGRADCGITSASYHQGVLSATILYEILLGKATLYAVLVSALVLMAMVKRKDSRGRAKRSGSGATNFSLLKQAGDVEENPGPTSATMDWIWRILFLVGAATGAHSGPQVQLQESGGGLAQAGGSLRLSCAASGRTFSMGWFRQAPGKEREFVAAITYSGGSPYYASSVRGRFTISRDNAKNTVYLQMNSLKPEDTAVYYCAANPTYGSDWNAENWGQGTQVTVSSGSGGGGSGGGGSGGGGSFEQVQLQQPGAELVKPGASVKMSCKASGYAFSSYWINWMKQKPGQGLEWIGQIYPGDGDTNYNGKFKGRATLTADTSSSTAYMQLSSLTSEDSAVYFCARSITTVVGCAMDYWGQGTSVTVSSTRIQNPDPAVYQLRDSKSSDKSVCLFTDFDSQTNVSQSKDSDVYITDKCVLDMRSMDFKSNSAVAWSNKSDFACANAFNNSIIPEDTFFPSSDVPCDVKLVEKSFETDTNLNFQNLSVIGFRILLLKVAGFNLLMTLRLWSSRAKRSGSGVKQTLNFDLLKLAGDVESNPGPSRGHMTEYKPTVRLATRDDVPRAVRTLAAAFADYPATRHTVDPDRHIERVTELQELFLTRVGLDIGKVWVADDGAAVAVWTTPESVEAGAVFAEIGPRMAELSGSRLAAQQQMEGLLAPHRPKEPAWFLATVGVSPDHQGKGLGSAVVLPGVEAAERAGVPAFLETSAPRNLPFYERLGFTVTADVEVPEGPRTWCMTRKPGA
What does the source list for B3?
NFAT-GFP ASSAY: L363 (L363 cells): + (refer to approximately 5%, 10%, 20%, 30%, 40% and 50% GFP positive cells); NFAT-GFP ASSAY: Raji-CD19-KO (RAJI-CD19-KO cells): 2+ (refer to approximately 5%, 10%, 20%, 30%, 40% and 50% GFP positive cells); NFAT-GFP ASSAY: Nalm6 (Nalm6 cells): 3+ (refer to approximately 5%, 10%, 20%, 30%, 40% and 50% GFP positive cells); NFAT-GFP ASSAY: SKOV-3 (SKOV-3 cells): 2+ (refer to approximately 5%, 10%, 20%, 30%, 40% and 50% GFP positive cells)
